US20080206239A1 (ANTITOPE, published 2008)

Molecular target: human TNFα (human, UniProt P01375 77-233)
Assay: cell-based or functional assay

Chain of human TNFα (P01375 77-233 limits assumed): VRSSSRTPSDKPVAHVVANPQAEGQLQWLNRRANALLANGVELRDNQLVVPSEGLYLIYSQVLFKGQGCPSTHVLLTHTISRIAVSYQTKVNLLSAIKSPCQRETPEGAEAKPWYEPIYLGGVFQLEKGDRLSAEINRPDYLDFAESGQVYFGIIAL

Binder | Ratio of Activities compared to Chimeric Antibody (fold difference, WEHI-164 protection assay at 25 ng/ml) [fold]
antibody of heavy chain SEQ. ID. No. 1 and light chain SEQ. ID. No. 4 (antibody, human IgG1, V domains shown) VH: EVKLEESGGGLVQPGGSMKLSCVASGFIFSNHWMNWVRQSPEKGLEWVAEIRSKSINSATHYAESVKGRFTISRDDSKSAVYLQMTDLRTEDTGVYYCSRNYYGSTYDYWGQGTTLTVSS VL: DILLTQSPAILSLSPGERATLSCRASQFVGSSIHWYQQKTNQSPKLLIKYASESMSGIPSRFSGSGSGTDFTLTINSLESEDAADYYCQQSHSWPFTFGQGTNLEIK | 1.51
Composite Human Antibody of heavy chain SEQ. ID. No. 6 and light chain SEQ. ID. No. 10 (antibody, human IgG1, V domains shown) VH: EVQLVESGGGLVQPGGSLKLSCVASGFIFSNHWMNWVRQAPGKGLEWVAEIRSKSINSATHYAESVKGRFTISRDDSKSIVYLQMNSLKTEDTGVYYCSRNYYGSTYDYWGQGTTVTVSS VL: DILLTQSPATLSLSPGERATLSCRASQFVGSSIHWYQQKTNQSPKLLIKYASESMSGIPSRFSGSGSGTDFTLTINSLEAEDAADYYCQQSHSWPFTFGQGTRLEIK | 1.63
Composite Human Antibody of heavy chain SEQ. ID. No. 5 and light chain SEQ. ID. No. 4 (antibody, human IgG1, V domains shown) VH: EVQLVESGGGLVQPGGSLKLSCVASGFIFSNHWMNWVRQAPGKGLEWVAEIRSKSINSATHYAESVKGRFTISRDDSKSIVYLQMNDLKTEDTGVYYCSRNYYGSTYDYWGQGTTVTVSS VL: DILLTQSPAILSLSPGERATLSCRASQFVGSSIHWYQQKTNQSPKLLIKYASESMSGIPSRFSGSGSGTDFTLTINSLESEDAADYYCQQSHSWPFTFGQGTNLEIK | 1.28
Composite Human Antibody of heavy chain SEQ. ID. No. 3 and light chain SEQ. ID. No. 11 (antibody, human IgG1, V domains shown) VH: EVQLVESGGGLVQPGGSLKLSCVASGFIFSNHWMNWVRQAPGKGLEWVAEIRSKSINSATHYAESVKGRFTISRDDSKSIVYLQMTDLRTEDTGVYYCSRNYYGSTYDYWGQGTTVTVSS VL: DILLTQSPATLSLSPGERATLSCRASQFVGSSIHWYQQKTDQSPKLLIKYASESMSGIPSRFSGSGSGTDFTLTINSLEAEDAADYYCQQSHSWPFTFGQGTRLEIK | 15.2
Composite Human Antibody of heavy chain SEQ. ID. No. 7 and light chain SEQ. ID. No. 11 (antibody, human IgG1, V domains shown) VH: EVQLVESGGGLVQPGGSLKLSCAASGFIFSNHWMNWVRQAPGKGLEWVAEIRSKSINSATHYAESVKGRFTISRDDSKSIVYLQMNSLKTEDTGVYYCSRNYYGSTYDYWGQGTTVTVSS VL: DILLTQSPATLSLSPGERATLSCRASQFVGSSIHWYQQKTDQSPKLLIKYASESMSGIPSRFSGSGSGTDFTLTINSLEAEDAADYYCQQSHSWPFTFGQGTRLEIK | 106
Composite Human Antibody 7/9 (antibody, human IgG1, V domains shown) VH: EVQLVESGGGLVQPGGSLKLSCAASGFIFSNHWMNWVRQAPGKGLEWVAEIRSKSINSATHYAESVKGRFTISRDDSKSIVYLQMNSLKTEDTGVYYCSRNYYGSTYDYWGQGTTVTVSS VL: DILLTQSPATLSLSPGERATLSCRASQFVGSSIHWYQQKTNQSPKLLIKYASESMSGIPSRFSGSGSGTDFTLTINSLESEDAADYYCQQSHSWPFTFGQGTRLEIK | 0.95
primary Composite Human Antibody (heavy chain SEQ. ID. No. 3 and light chain SEQ. ID. No. 4) (antibody, human IgG1, V domains shown) VH: EVQLVESGGGLVQPGGSLKLSCVASGFIFSNHWMNWVRQAPGKGLEWVAEIRSKSINSATHYAESVKGRFTISRDDSKSIVYLQMTDLRTEDTGVYYCSRNYYGSTYDYWGQGTTVTVSS VL: DILLTQSPAILSLSPGERATLSCRASQFVGSSIHWYQQKTNQSPKLLIKYASESMSGIPSRFSGSGSGTDFTLTINSLESEDAADYYCQQSHSWPFTFGQGTNLEIK | 2.28
Composite Human Antibody of heavy chain SEQ. ID. No. 6 and light chain SEQ. ID. No. 11 (antibody, human IgG1, V domains shown) VH: EVQLVESGGGLVQPGGSLKLSCVASGFIFSNHWMNWVRQAPGKGLEWVAEIRSKSINSATHYAESVKGRFTISRDDSKSIVYLQMNSLKTEDTGVYYCSRNYYGSTYDYWGQGTTVTVSS VL: DILLTQSPATLSLSPGERATLSCRASQFVGSSIHWYQQKTDQSPKLLIKYASESMSGIPSRFSGSGSGTDFTLTINSLEAEDAADYYCQQSHSWPFTFGQGTRLEIK | 134
Composite Human Antibody of heavy chain SEQ. ID. No. 6 and light chain SEQ. ID. No. 4 (antibody, human IgG1, V domains shown) VH: EVQLVESGGGLVQPGGSLKLSCVASGFIFSNHWMNWVRQAPGKGLEWVAEIRSKSINSATHYAESVKGRFTISRDDSKSIVYLQMNSLKTEDTGVYYCSRNYYGSTYDYWGQGTTVTVSS VL: DILLTQSPAILSLSPGERATLSCRASQFVGSSIHWYQQKTNQSPKLLIKYASESMSGIPSRFSGSGSGTDFTLTINSLESEDAADYYCQQSHSWPFTFGQGTNLEIK | 1.38
Composite Human Antibody of heavy chain SEQ. ID. No. 6 and light chain SEQ. ID. No. 9 (antibody, human IgG1, V domains shown) VH: EVQLVESGGGLVQPGGSLKLSCVASGFIFSNHWMNWVRQAPGKGLEWVAEIRSKSINSATHYAESVKGRFTISRDDSKSIVYLQMNSLKTEDTGVYYCSRNYYGSTYDYWGQGTTVTVSS VL: DILLTQSPATLSLSPGERATLSCRASQFVGSSIHWYQQKTNQSPKLLIKYASESMSGIPSRFSGSGSGTDFTLTINSLESEDAADYYCQQSHSWPFTFGQGTRLEIK | 1.77
antibody of heavy chain SEQ. ID. No. 1 and light chain SEQ. ID. No. 9 (antibody, human IgG1, V domains shown) VH: EVKLEESGGGLVQPGGSMKLSCVASGFIFSNHWMNWVRQSPEKGLEWVAEIRSKSINSATHYAESVKGRFTISRDDSKSAVYLQMTDLRTEDTGVYYCSRNYYGSTYDYWGQGTTLTVSS VL: DILLTQSPATLSLSPGERATLSCRASQFVGSSIHWYQQKTNQSPKLLIKYASESMSGIPSRFSGSGSGTDFTLTINSLESEDAADYYCQQSHSWPFTFGQGTRLEIK | 1.28
Composite Human Antibody of heavy chain SEQ. ID. No. 5 and light chain SEQ. ID. No. 11 (antibody, human IgG1, V domains shown) VH: EVQLVESGGGLVQPGGSLKLSCVASGFIFSNHWMNWVRQAPGKGLEWVAEIRSKSINSATHYAESVKGRFTISRDDSKSIVYLQMNDLKTEDTGVYYCSRNYYGSTYDYWGQGTTVTVSS VL: DILLTQSPATLSLSPGERATLSCRASQFVGSSIHWYQQKTDQSPKLLIKYASESMSGIPSRFSGSGSGTDFTLTINSLEAEDAADYYCQQSHSWPFTFGQGTRLEIK | 196
Composite Human Antibody of heavy chain SEQ. ID. No. 5 and light chain SEQ. ID. No. 9 (antibody, human IgG1, V domains shown) VH: EVQLVESGGGLVQPGGSLKLSCVASGFIFSNHWMNWVRQAPGKGLEWVAEIRSKSINSATHYAESVKGRFTISRDDSKSIVYLQMNDLKTEDTGVYYCSRNYYGSTYDYWGQGTTVTVSS VL: DILLTQSPATLSLSPGERATLSCRASQFVGSSIHWYQQKTNQSPKLLIKYASESMSGIPSRFSGSGSGTDFTLTINSLESEDAADYYCQQSHSWPFTFGQGTRLEIK | 1.32
antibody of heavy chain SEQ. ID. No. 1 and light chain SEQ. ID. No. 10 (antibody, human IgG1, V domains shown) VH: EVKLEESGGGLVQPGGSMKLSCVASGFIFSNHWMNWVRQSPEKGLEWVAEIRSKSINSATHYAESVKGRFTISRDDSKSAVYLQMTDLRTEDTGVYYCSRNYYGSTYDYWGQGTTLTVSS VL: DILLTQSPATLSLSPGERATLSCRASQFVGSSIHWYQQKTNQSPKLLIKYASESMSGIPSRFSGSGSGTDFTLTINSLEAEDAADYYCQQSHSWPFTFGQGTRLEIK | 1.31
antibody of heavy chain SEQ. ID. No. 1 and light chain SEQ. ID. No. 11 (antibody, human IgG1, V domains shown) VH: EVKLEESGGGLVQPGGSMKLSCVASGFIFSNHWMNWVRQSPEKGLEWVAEIRSKSINSATHYAESVKGRFTISRDDSKSAVYLQMTDLRTEDTGVYYCSRNYYGSTYDYWGQGTTLTVSS VL: DILLTQSPATLSLSPGERATLSCRASQFVGSSIHWYQQKTDQSPKLLIKYASESMSGIPSRFSGSGSGTDFTLTINSLEAEDAADYYCQQSHSWPFTFGQGTRLEIK | 16.9
Composite Human Antibody 7/4 (antibody, human IgG1, V domains shown) VH: EVQLVESGGGLVQPGGSLKLSCAASGFIFSNHWMNWVRQAPGKGLEWVAEIRSKSINSATHYAESVKGRFTISRDDSKSIVYLQMNSLKTEDTGVYYCSRNYYGSTYDYWGQGTTVTVSS VL: DILLTQSPAILSLSPGERATLSCRASQFVGSSIHWYQQKTNQSPKLLIKYASESMSGIPSRFSGSGSGTDFTLTINSLESEDAADYYCQQSHSWPFTFGQGTNLEIK | 1.05
Composite Human Antibody 7/10 (i.e. containing SEQ. ID. No.s 7 and 10) (antibody, human IgG1, V domains shown) VH: EVQLVESGGGLVQPGGSLKLSCAASGFIFSNHWMNWVRQAPGKGLEWVAEIRSKSINSATHYAESVKGRFTISRDDSKSIVYLQMNSLKTEDTGVYYCSRNYYGSTYDYWGQGTTVTVSS VL: DILLTQSPATLSLSPGERATLSCRASQFVGSSIHWYQQKTNQSPKLLIKYASESMSGIPSRFSGSGSGTDFTLTINSLEAEDAADYYCQQSHSWPFTFGQGTRLEIK | 0.98
Composite Human Antibody of heavy chain SEQ. ID. No. 3 and light chain SEQ. ID. No. 10 (antibody, human IgG1, V domains shown) VH: EVQLVESGGGLVQPGGSLKLSCVASGFIFSNHWMNWVRQAPGKGLEWVAEIRSKSINSATHYAESVKGRFTISRDDSKSIVYLQMTDLRTEDTGVYYCSRNYYGSTYDYWGQGTTVTVSS VL: DILLTQSPATLSLSPGERATLSCRASQFVGSSIHWYQQKTNQSPKLLIKYASESMSGIPSRFSGSGSGTDFTLTINSLEAEDAADYYCQQSHSWPFTFGQGTRLEIK | 2.51
Composite Human Antibody 5/10 (antibody, human IgG1, V domains shown) VH: EVQLVESGGGLVQPGGSLKLSCVASGFIFSNHWMNWVRQAPGKGLEWVAEIRSKSINSATHYAESVKGRFTISRDDSKSIVYLQMNDLKTEDTGVYYCSRNYYGSTYDYWGQGTTVTVSS VL: DILLTQSPATLSLSPGERATLSCRASQFVGSSIHWYQQKTNQSPKLLIKYASESMSGIPSRFSGSGSGTDFTLTINSLEAEDAADYYCQQSHSWPFTFGQGTRLEIK | 1.17
Composite Human Antibody of heavy chain SEQ. ID. No. 3 and light chain SEQ. ID. No. 9 (antibody, human IgG1, V domains shown) VH: EVQLVESGGGLVQPGGSLKLSCVASGFIFSNHWMNWVRQAPGKGLEWVAEIRSKSINSATHYAESVKGRFTISRDDSKSIVYLQMTDLRTEDTGVYYCSRNYYGSTYDYWGQGTTVTVSS VL: DILLTQSPATLSLSPGERATLSCRASQFVGSSIHWYQQKTNQSPKLLIKYASESMSGIPSRFSGSGSGTDFTLTINSLESEDAADYYCQQSHSWPFTFGQGTRLEIK | 2.14
